# Results taken from patent US20230277625A1 (SIMCHA IL 18, published 2023).
# T1: IL-18 receptor (IL-18Rα / IL-18Rβ heterodimer) on HEK-Blue IL-18 reporter cells (UniProt Q13478 19-541; O95256 20-599, limits assumed)
# T1 sequence (looked up) 1: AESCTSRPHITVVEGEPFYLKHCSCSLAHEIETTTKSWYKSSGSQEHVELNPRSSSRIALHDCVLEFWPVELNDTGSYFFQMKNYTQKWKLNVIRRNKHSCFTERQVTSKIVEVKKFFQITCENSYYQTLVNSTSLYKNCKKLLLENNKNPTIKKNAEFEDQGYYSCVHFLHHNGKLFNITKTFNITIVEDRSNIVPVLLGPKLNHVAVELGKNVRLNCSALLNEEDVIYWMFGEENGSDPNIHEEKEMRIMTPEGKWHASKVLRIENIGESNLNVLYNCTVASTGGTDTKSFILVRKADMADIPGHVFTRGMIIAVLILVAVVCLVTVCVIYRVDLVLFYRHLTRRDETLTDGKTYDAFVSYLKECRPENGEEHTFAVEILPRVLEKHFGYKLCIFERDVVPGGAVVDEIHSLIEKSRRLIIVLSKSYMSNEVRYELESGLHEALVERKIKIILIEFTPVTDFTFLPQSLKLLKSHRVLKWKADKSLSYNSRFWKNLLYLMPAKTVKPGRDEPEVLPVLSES
# T1 sequence (looked up) 2: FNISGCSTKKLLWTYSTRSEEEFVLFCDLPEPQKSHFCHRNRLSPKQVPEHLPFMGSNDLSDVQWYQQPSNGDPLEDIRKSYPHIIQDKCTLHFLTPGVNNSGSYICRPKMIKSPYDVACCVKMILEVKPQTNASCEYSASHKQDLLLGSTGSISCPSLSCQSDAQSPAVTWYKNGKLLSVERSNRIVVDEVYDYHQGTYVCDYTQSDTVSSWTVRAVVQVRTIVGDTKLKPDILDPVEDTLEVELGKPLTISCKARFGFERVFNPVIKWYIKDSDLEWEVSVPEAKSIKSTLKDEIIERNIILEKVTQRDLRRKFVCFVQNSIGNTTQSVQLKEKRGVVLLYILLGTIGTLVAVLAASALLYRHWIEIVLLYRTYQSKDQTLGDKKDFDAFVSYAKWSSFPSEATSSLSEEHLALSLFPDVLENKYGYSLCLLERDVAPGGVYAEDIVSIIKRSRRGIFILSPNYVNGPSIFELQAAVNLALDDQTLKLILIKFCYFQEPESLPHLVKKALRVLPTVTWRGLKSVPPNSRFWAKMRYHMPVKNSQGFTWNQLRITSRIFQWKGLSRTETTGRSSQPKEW
# T2: Human IL-18BP (amino acids 31-194), biotinylated (human, UniProt O95998 31-194, biotin on the AviTag (BirA ligase) where used biotinylated)
# T2 construct: Soluble decoy receptor; also called hIL-18BP; recombinant IL-18BP
# T2 sequence: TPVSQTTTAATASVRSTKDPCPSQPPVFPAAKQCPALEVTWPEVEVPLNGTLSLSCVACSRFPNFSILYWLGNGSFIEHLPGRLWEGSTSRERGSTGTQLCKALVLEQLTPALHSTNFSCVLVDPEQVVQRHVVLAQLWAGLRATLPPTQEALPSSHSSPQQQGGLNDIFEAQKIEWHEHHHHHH
# Biological target: T1, IL-18 receptor (IL-18Rα / IL-18Rβ …)
# Assay: cell-based or functional assay
Binder,"EC50-#1 (M), HEK-Blue reporter [M]","EC50-#2 (M), HEK-Blue reporter [M]"
SEQ ID NO: 6 (SEQ ID NO: 89 plus C38S/C68S) (ligand) YFGKLESKLSVIRNLNDQVLFIDQGNRPLFEDMTDSDSRDNAPRTIFIISKYSDSLARGLAVTISVKSEKISTLSCENKIISFKEMNPPDNIKDTKSDIIFFQRDVPGHSRKMQFESSSYEGYFLACEKERDLFKLILKKEDELGDRSIMFTVQNED,1.96e-10,1.3e-10
SEQ ID NO: 21 (SEQ ID NO: 89 plus C38S/C68N) (ligand) YFGKLESKLSVIRNLNDQVLFIDQGNRPLFEDMTDSDSRDNAPRTIFIISKYSDSLARGLAVTISVKNEKISTLSCENKIISFKEMNPPDNIKDTKSDIIFFQRDVPGHSRKMQFESSSYEGYFLACEKERDLFKLILKKEDELGDRSIMFTVQNED,1.28e-10,1.24e-10
SEQ ID NO: 18 (SEQ ID NO: 89 plus C38S/C68V) (ligand) YFGKLESKLSVIRNLNDQVLFIDQGNRPLFEDMTDSDSRDNAPRTIFIISKYSDSLARGLAVTISVKVEKISTLSCENKIISFKEMNPPDNIKDTKSDIIFFQRDVPGHSRKMQFESSSYEGYFLACEKERDLFKLILKKEDELGDRSIMFTVQNED,5.19e-11,4.48e-11
SEQ ID NO: 17 (SEQ ID NO: 89 plus C38S/C68A) (ligand) YFGKLESKLSVIRNLNDQVLFIDQGNRPLFEDMTDSDSRDNAPRTIFIISKYSDSLARGLAVTISVKAEKISTLSCENKIISFKEMNPPDNIKDTKSDIIFFQRDVPGHSRKMQFESSSYEGYFLACEKERDLFKLILKKEDELGDRSIMFTVQNED,1.41e-10,1.09e-10
SEQ ID NO: 20 (SEQ ID NO: 89 plus C38S/C68E) (ligand) YFGKLESKLSVIRNLNDQVLFIDQGNRPLFEDMTDSDSRDNAPRTIFIISKYSDSLARGLAVTISVKEEKISTLSCENKIISFKEMNPPDNIKDTKSDIIFFQRDVPGHSRKMQFESSSYEGYFLACEKERDLFKLILKKEDELGDRSIMFTVQNED,1.35e-10,1.62e-10
SEQ ID NO: 16 (SEQ ID NO: 89 plus C38S/C68G) (ligand) YFGKLESKLSVIRNLNDQVLFIDQGNRPLFEDMTDSDSRDNAPRTIFIISKYSDSLARGLAVTISVKGEKISTLSCENKIISFKEMNPPDNIKDTKSDIIFFQRDVPGHSRKMQFESSSYEGYFLACEKERDLFKLILKKEDELGDRSIMFTVQNED,2.05e-10,1.54e-10

# Biological target: T2, Human IL-18BP (amino acids 31-194), …
# Assay: on-yeast binding isotherm (flow cytometry), drawn summary table, column IL18BP (KD)
row,Binder,Kd [nM]
1,"SEQ ID NO: 94 (human D2D IL-18 variant hD2D-5F10) (ligand, Engineered decoy-to-the-decoy variant) HFGKLESKLSVIRNLNGQVLFIDQGNRPLFADMEASPCRDNAPRTIFIISFYKDSQPRGLAVTISVKCEKISTLSCENKIISFKEMNPPDNIKDTKSDIIFFLRSVPGHDNKMQFESSSYEGYFLACEKERDLFKLILKKEDELGDRSIMFTVQNED",6.4
2,"SEQ ID NO: 99 (human D2D IL-18 variant hD2D-5F01) (ligand, Engineered decoy-to-the-decoy variant) HFGKLESKLSVIRNLNGQVLFIDQGNRPLFTDMTSSDCRDKAPRTIFIISFYKDSQPRGLAVTISVKCEKISTLSCENKIISFKEMNPPDNIKDTKSDIIFFLRSVPGPDNKFQFESSSYEGYFLACEKERDLFKLILKKEDELGDRSIMFTVQNED",4.8
3,"SEQ ID NO: 123 (human D2D IL-18 consensus hD2D-CS1) (ligand, Engineered decoy-to-the-decoy variant) YFGKLESKLSVIRNLNGQVLFIDQGNRPLFADMTDSDCRDNAPRTIFIISMYKDSQPRGMAVTISVKCEKISTLSCENKIISFKEMNPPDNIKDTKSDIIFFLRSVPGHDNKMQFESSSYEGYFLACEKERDLFKLILKKEDELGDRSIMFTVQNED",5.9
4,"SEQ ID NO: 120 (human D2D IL-18 variant hD2D-5B02) (ligand, Engineered decoy-to-the-decoy variant) YFGKLESKLSVIRNLNGQVLFIDQGNRPLFADMTSKRCRDNAPRTIFIISLYKDSQPRGFAVTISVKCEKISTLSCENKIISFKEMNPPDNIKDTKSDIIFFIRSVPGHDNKIQFESSSYEGYFLACEKERDLFKLILKKEDELGDRSIMFTVQNED",4.2
5,"SEQ ID NO: 98 (human D2D IL-18 variant hD2D-5F02) (ligand, Engineered decoy-to-the-decoy variant) HFGKLESKLSVIRNLNGQVLFIDQGNRPLFGDMEASPCRDNAPRTIFIISFYKDSQPRGMAVTISVKCEKISTLSCENKIISFKEMNPPDNIKDTKSDIIFFIRSVPGADNKLQFESSSYEGYFLACEKERDLFKLILKKEDELGDRSIMFTVQNED",5.4
6,"SEQ ID NO: 124 (human D2D IL-18 consensus hD2D-CS2) (ligand, Engineered decoy-to-the-decoy variant) YFGKLESKLSVIRNLNGQVLFIDQGNRPLFADMTSSDCRDNAPRTIFIISFYKDSQPRGMAVTISVKCEKISTLSCENKIISFKEMNPPDNIKDTKSDIIFFLRSVPGHDNKMQFESSSYEGYFLACEKERDLFKLILKKEDELGDRSIMFTVQNED",7.9
7,"SEQ ID NO: 101 (human D2D IL-18 variant hD2D-5E08) (ligand, Engineered decoy-to-the-decoy variant) YFGKLESKLSVIRNLNGQVLFIDQGNRPLFTDMTASPCRDNAPRTIFIISFYKDSQPRGLAVTISVKCEKISTLSCENKIISFKEMNPPDNIKDTKSDIIFFLRSVPGHDNKIQFESSSYEGYFLACEKERSLFKLILKKEDELGDRSIMFTVQNED",8.8
8,"SEQ ID NO: 125 (human D2D IL-18 consensus hD2D-CS3) (ligand, Engineered decoy-to-the-decoy variant) YFGKLESKLSVIRNLNGQVLFIDQGNRPLFADMESSDCRDNAPRTIFIISFYKDSQPRGLAVTISVKCEKISTLSCENKIISFKEMNPPDNIKDTKSDIIFFLRSVPGHDNKMQFESSSYEGYFLACEKERDLFKLILKKEDELGDRSIMFTVQNED",8.9
